In general, Kd refers to the concentration at which binding is half-saturated.

These results are taken from publication PMC2946933.

The target in this series is Hfq K56A K56A (UniProt P0A6X3). The series can be described thus: SPR. The following applies: EMSA: 50 mM Tris-HCl pH 7.5, 100 mM KCl, 10 mM MgCl2, room temperature, SPR: same buffer, 25 C, Tb footprinting: 50 mM Tris-HCl pH 8.0, 100 mM NaCl. For orientation: Mobility shift assays separate free from complexed probe on a gel.

“GCAGCGUUACAUUCCCAUCCACUGGGGAAAGACGCGGCGCUGAUUGGUGAAGUGGUGGAACGUAAAGGUGUUCGUCUUGCCGGUCUGUAUGGCGUGAAACGAACCCUCGAUUUACCACACGCCGAACCGCUUCCGCGUAUAUGCUAAUAAAAUUCUAAAUCUCCUAUAGUUAGUCAAUGACCUUUUGCACCGCUUUGCGGUGCUUUCCUGGAAGAACAAAAUGUCAUAUACACCGAUGAGUGAUCUCGGACAACAAGGGUUGUUCGACAUCACUCGGACAAAUAUUGGAUCCGCUCGG [fhlA220 mRNA]” yielded a Kd of 3 nM.
